From US20250026842A1

Molecular target: pre-anti-drug antibodies (pre-ADAs) in individual serum samples taken from healthy humans
Experiment: ELISA, coated sdAb, 40 healthy donor sera (1:5), anti-human lambda chain-HRP, OD415

Row | percent of serum samples with detectable sdAb-reactive pre-ADAs [%] | Binder
1 | 57.5 | P2-1 (protein) VH: HHHHHHGGGGSEVQLLESGGGLVQPGGSLRLSCAASGFTFAHETMVWVRQAPGKGLEWVSHIPPDGQDPFYADSVKGRFTISRDNSKNTLYLQMNSLRAEDTAVYHCALLPKRGPWFDYWGQGTLVTVSS
2 | 12.5 | P2-2 (protein) VH: HHHHHHGGGGSEVQLLESGGGLVQPGGSLRLSCAASGFTFAHETMVWVRQAPGKGLEWVSHIPPDGQDPFYADSVKGRFTISRDNSKNTLYLQMNSLRAEDTAVYHCALLPKRGPWFDYWGQGTLVTVSSA
